These results are taken from the Human Domainome abundance scans (Beltran et al. 2025).

B1: RAS guanyl-releasing protein 1, residues 539 to 593; numbered along this chain, O95267 (parent)
chain: GFPHNFQETTYLKPTFCDNCAGFLWGVIKQGYRCKDCGMNCHKQCKDLVVFECKK

± gives the uncertainty stated by the source.

Variants of B1 are the subject of this data set. Briefly: abundance fitness (aPCA) (normalised: wild type 0, dead -1); higher = more abundant; growth selection in yeast, the domain comes from the species named. The conditions noted are these: Homo sapiens.
Turning to GFPHNFQETTYLKPTFCDNCAGFLWGVIKQGYRCKDCGMNCHKQCKDLVCFECKK [V50C], the abundance fitness was 0.042 ± 0.06.

GFPHNFQETTYLKPTFCDNCAGFLWGVIKQGYRCKDCGMNCHKQCKDLVWFECKK [V50W]: the abundance fitness is -0.121 ± 0.071.

Take GFPHNFQETTYLKPTFCDNCAGFLWGVIKQGYRCKDCGMNCHKQCKDLVEFECKK [V50E]: the abundance fitness is 0.037 ± 0.061.

For GFPHNFQETTYLKPTFCDNCAGFLWGVIKQGYRCKDCGMNCHKQCKDLVNFECKK [V50N], the abundance fitness is -0.228 ± 0.11.

As for GFPHNFQETTYLKPTFCDNCAGFLWGVIKQGYRCKDCGMNCHKQCKDLVGFECKK [V50G], the abundance fitness was -0.076 ± 0.071.

On to GFPHNFQETTYLKPTFCDNCAGFLWGVIKQGYRCKDCGMNCHKQCKDLVKFECKK [V50K], for which the abundance fitness was -0.383 ± 0.15.

Turning to GFPHNFQETTYLKPTFCDNCAGFLWGVIKQGYRCKDCGMNCHKQCKDLVHFECKK [V50H], the abundance fitness was -0.214 ± 0.15.

With GFPHNFQETTYLKPTFCDNCAGFLWGVIKQGYRCKDCGMNCHKQCKDLVPFECKK [V50P], the abundance fitness is -0.157 ± 0.12.

For GFPHNFQETTYLKPTFCDNCAGFLWGVIKQGYRCKDCGMNCHKQCKDLVQFECKK [V50Q], the abundance fitness was 0.06 ± 0.1.

Regarding GFPHNFQETTYLKPTFCDNCAGFLWGVIKQGYRCKDCGMNCHKQCKDLVLFECKK [V50L], the abundance fitness is 0.07 ± 0.079.

GFPHNFQETTYLKPTFCDNCAGFLWGVIKQGYRCKDCGMNCHKQCKDLVMFECKK [V50M]: the abundance fitness was 0.043 ± 0.11.

Take GFPHNFQETTYLKPTFCDNCAGFLWGVIKQGYRCKDCGMNCHKQCKDLVAFECKK [V50A]: the abundance fitness was -0.064 ± 0.1.

For GFPHNFQETTYLKPTFCDNCAGFLWGVIKQGYRCKDCGMNCHKQCKDLVDFECKK [V50D], the abundance fitness was -0.208 ± 0.13.

GFPHNFQETTYLKPTFCDNCAGFLWGVIKQGYRCKDCGMNCHKQCKDLVYFECKK [V50Y]: the abundance fitness is -0.231 ± 0.12.

Turning to GFPHNFQETTYLKPTFCDNCAGFLWGVIKQGYRCKDCGMNCHKQCKDLVIFECKK [V50I], the abundance fitness was -0.541 ± 0.23.

Turning to GFPHNFQETTYLKPTFCDNCAGFLWGVIKQGYRCKDCGMNCHKQCKDLVSFECKK [V50S], the abundance fitness was -0.03 ± 0.057.

With GFPHNFQETTYLKPTFCDNCAGFLWGVIKQGYRCKDCGMNCHKQCKDLVRFECKK [V50R], the abundance fitness is -0.11 ± 0.068.

On to GFPHNFQETTYLKPTFCDNCAGFLWGVIKQGYRCKDCGMNCHKQCKDLVVFEHKK [C53H], for which the abundance fitness was -0.009 ± 0.2.

Take GFPHNFQETTYLKPTFCDNCAGFLWGVIKQGYRCKDCGMNCHKQCKDLVVFEWKK [C53W]: the abundance fitness was -0.082 ± 0.074.

With GFPHNFQETTYLKPTFCDNCAGFLWGVIKQGYRCKDCGMNCHKQCKDLVVFELKK [C53L], the abundance fitness was 0.021 ± 0.085.

For the variant GFPHNFQETTYLKPTFCDNCAGFLWGVIKQGYRCKDCGMNCHKQCKDLVVFEQKK [C53Q], the abundance fitness was found to be 0.043 ± 0.077.

In the case of GFPHNFQETTYLKPTFCDNCAGFLWGVIKQGYRCKDCGMNCHKQCKDLVVFEEKK [C53E], the abundance fitness is -0.209 ± 0.11.

Consider GFPHNFQETTYLKPTFCDNCAGFLWGVIKQGYRCKDCGMNCHKQCKDLVVFENKK [C53N], for which the abundance fitness stood at 0.13 ± 0.13.

Consider GFPHNFQETTYLKPTFCDNCAGFLWGVIKQGYRCKDCGMNCHKQCKDLVVFERKK [C53R], for which the abundance fitness is -0.255 ± 0.067.

On to GFPHNFQETTYLKPTFCDNCAGFLWGVIKQGYRCKDCGMNCHKQCKDLVVFEMKK [C53M], for which the abundance fitness is -0.095 ± 0.051.

As for GFPHNFQETTYLKPTFCDNCAGFLWGVIKQGYRCKDCGMNCHKQCKDLVVFEFKK [C53F], the abundance fitness is -0.32 ± 0.16.

Regarding GFPHNFQETTYLKPTFCDNCAGFLWGVIKQGYRCKDCGMNCHKQCKDLVVFEYKK [C53Y], the abundance fitness is -0.198 ± 0.16.

Take GFPHNFQETTYLKPTFCDNCAGFLWGVIKQGYRCKDCGMNCHKQCKDLVVFEVKK [C53V]: the abundance fitness is -0.103 ± 0.062.

GFPHNFQETTYLKPTFCDNCAGFLWGVIKQGYRCKDCGMNCHKQCKDLVVFEDKK [C53D]: the abundance fitness is -0.061 ± 0.14.

Turning to GFPHNFQETTYLKPTFCDNCAGFLWGVIKQGYRCKDCGMNCHKQCKDLVVFEKKK [C53K], the abundance fitness is -0.257 ± 0.19.

Consider GFPHNFQETTYLKPTFCDNCAGFLWGVIKQGYRCKDCGMNCHKQCKDLVVFEIKK [C53I], for which the abundance fitness was -0.297 ± 0.2.

For the variant GFPHNFQETTYLKPTFCDNCAGFLWGVIKQGYRCKDCGMNCHKQCKDLVVFETKK [C53T], the abundance fitness is -0.245 ± 0.1.

Regarding GFPHNFQETTYLKPTFCDNCAGFLWGVIKQGYRCKDCGMNCHKQCKDLVVFNCKK [E52N], the abundance fitness is -0.174 ± 0.18.

As to GFPHNFQETTYLKPTFCDNCAGFLWGVIKQGYRCKDCGMNCHKQCKDLVVFTCKK [E52T], the abundance fitness is -0.037 ± 0.086.

Take GFPHNFQETTYLKPTFCDNCAGFLWGVIKQGYRCKDCGMNCHKQCKDLVVFQCKK [E52Q]: the abundance fitness was -0.166 ± 0.15.

As for GFPHNFQETTYLKPTFCDNCAGFLWGVIKQGYRCKDCGMNCHKQCKDLVVFFCKK [E52F], the abundance fitness was 0.184 ± 0.12.

Turning to GFPHNFQETTYLKPTFCDNCAGFLWGVIKQGYRCKDCGMNCHKQCKDLVVFKCKK [E52K], the abundance fitness is -0.057 ± 0.092.

With GFPHNFQETTYLKPTFCDNCAGFLWGVIKQGYRCKDCGMNCHKQCKDLVVFCCKK [E52C], the abundance fitness is -0.115 ± 0.081.

As for GFPHNFQETTYLKPTFCDNCAGFLWGVIKQGYRCKDCGMNCHKQCKDLVVFDCKK [E52D], the abundance fitness is 0.104 ± 0.092.

On to GFPHNFQETTYLKPTFCDNCAGFLWGVIKQGYRCKDCGMNCHKQCKDLVVFHCKK [E52H], for which the abundance fitness was -0.053 ± 0.13.

In the case of GFPHNFQETTYLKPTFCDNCAGFLWGVIKQGYRCKDCGMNCHKQCKDLVVFVCKK [E52V], the abundance fitness was -0.148 ± 0.055.

Regarding GFPHNFQETTYLKPTFCDNCAGFLWGVIKQGYRCKDCGMNCHKQCKDLVVFWCKK [E52W], the abundance fitness is -0.267 ± 0.11.

In the case of GFPHNFQETTYLKPTFCDNCAGFLWGVIKQGYRCKDCGMNCHKQCKDLVVFSCKK [E52S], the abundance fitness is -0.203 ± 0.09.

For the variant GFPHNFQETTYLKPTFCDNCAGFLWGVIKQGYRCKDCGMNCHKQCKDLVVFICKK [E52I], the abundance fitness is -0.063 ± 0.11.

As to GFPHNFQETTYLKPTFCDNCAGFLWGVIKQGYRCKDCGMNCHKQCKDLVVFACKK [E52A], the abundance fitness is -0.068 ± 0.11.

In the case of GFPHNFQETTYLKPTFCDNCAGFLWGVIKQGYRCKDCGMNCHKQCKDLVVFLCKK [E52L], the abundance fitness was -0.168 ± 0.087.

For the variant GFPHNFQETTYLKPTFCDNCAGFLWGVIKQGYRCKDCGMNCHKQCKDLVVFMCKK [E52M], the abundance fitness was -0.121 ± 0.053.

Regarding GFPHNFQETTYLKPTFCDNCAGFLWGVIKQGYRCKDCGMNCHKQCKDLVVFPCKK [E52P], the abundance fitness is -0.066 ± 0.071.
